This note sets out measurements from publication PMC10352136 (Nature Structural & Molecular Biology, 2023).

The labels stand for the following.
B4: SNX5^FL (full-length sorting nexin 5) (natural protein, human, UniProt Q9Y5X3 1-404, looked up)
chain: MAAVPELLQQQEEDRSKLRSVSVDLNVDPSLQIDIPDALSERDKVKFTVHTKTTLPTFQSPEFSVTRQHEDFVWLHDTLIETTDYAGLIIPPAPTKPDFDGPREKMQKLGEGEGSMTKEEFAKMKQELEAEYLAVFKKTVSSHEVFLQRLSSHPVLSKDRNFHVFLEYDQDLSVRRKNTKEMFGGFFKSVVKSADEVLFTGVKEVDDFFEQEKNFLINYYNRIKDSCVKADKMTRSHKNVADDYIHTAACLHSLALEEPTVIKKYLLKVAELFEKLRKVEGRVSSDEDLKLTELLRYYMLNIEAAKDLLYRRTKALIDYENSNKALDKARLKSKDVKLAEAHQQECCQKFEQLSESAKEELINFKRKRVAAFRKNLIEMSELEIKHARNNVSLLQSCIDLFKNN
notes: sorting nexin 5 (SNX5), human, full length; Monomer by SEC-MALS; also called SNX5^WT; source: E. coli BL21 (DE3), purified (glutathione Sepharose, TEV cleavage, SEC); not shown: GST, N-terminal, cleaved

Common to all, as to details: both partners purified
One assay has as its target T1, His-SUMO-SNX1 (human, UniProt Q13596 1-522).
T1 construct: sorting nexin 1 (SNX1), human, full length; Bait of the Ni-NTA pull-down; also called wild-type (WT) SNX1; source: E. coli BL21 (DE3), purified (tag-removal step omitted); not shown: His6-SUMO3, N-terminal, kept
The experiment in a line: pull-down; 5 µM His-SUMO-SNX1 or mutant held on Ni-NTA beads, 10 µM SNX5 or mutant; 1 h at 4 °C in 150 mM NaCl, 10 mM imidazole, 0.5 mM TCEP, 10 mM HEPES pH 7.5; Coomassie-stained SDS-PAGE.

The target in another assay is T2, His-SUMO-SNX1 (2× mut)^† (human, UniProt Q13596 1-522, F347A | W511A).
T2 construct: sorting nexin 1 (SNX1), human, full length, double mutant; Bait of the Ni-NTA pull-down; source: E. coli BL21 (DE3), purified (tag-removal step omitted); not shown: His6-SUMO3, N-terminal, kept
Described as above.

The target in assay [1] is B4. Briefly: liposome flotation; CI-MPR_(2330–2491) cross-linked by its N-terminal cysteine to DSPE-Mal (1–6%) on liposomes without phosphoinositides; SNXs incubated 1 h at 4 °C in buffer G; sucrose gradient, floated fraction on SDS-PAGE.
Assay [2] concerns the target T3, ESCPE-1 (SNX1^FL–SNX5^FL heterodimer) (human, UniProt Q13596 1-522; Q9Y5X3 1-404).
T3 construct: sorting nexin 1 (SNX1), human, full length; sorting nexin 5 (SNX5), human, full length; Single heterodimer by SEC-MALS; The GST tag is called cleavable; also called SNX1–SNX5; SNX1^WT-SNX5^WT; source: E. coli BL21 (DE3), pellets mixed and lysed together, purified (glutathione Sepharose, Ni-NTA, SENP2, ion exchange, SEC); not shown: His6-SUMO3, N-terminal, cleaved; copies: 1 + 1
The description is as above.

For assay [3], the target named is T4, SNX1^FL (full-length sorting nexin 1) (human, UniProt Q13596 1-522).
T4 construct: sorting nexin 1 (SNX1), human, full length; Homodimer by SEC-MALS; also called SNX1 WT; source: E. coli BL21 (DE3), purified (Ni-NTA, SENP2 tag cleavage, ion exchange, SEC); not shown: His6-SUMO3, N-terminal, cleaved
The experiment in a line: SEC-MALS; 100 μl of protein at 1 mg ml^−1 in 150 mM NaCl, 0.5 mM TCEP, 10 mM HEPES pH 7.5; Superdex 200 Increase 10/300 GL. (SEC sorts molecules by how far they enter the pores of the column.)

For assay [4], the target named is T5, SNX5^PX (PX domain of SNX5) (human, UniProt Q9Y5X3 25-172).
T5 construct: PX domain of sorting nexin 5 (SNX5), human; also called SNX5^PX domain; isolated PX domain; source: E. coli BL21 (DE3), purified (Ni-NTA, TEV cleavage, ion exchange, SEC); not shown: His6-MBP, N-terminal, cleaved
T5 sequence (looked up): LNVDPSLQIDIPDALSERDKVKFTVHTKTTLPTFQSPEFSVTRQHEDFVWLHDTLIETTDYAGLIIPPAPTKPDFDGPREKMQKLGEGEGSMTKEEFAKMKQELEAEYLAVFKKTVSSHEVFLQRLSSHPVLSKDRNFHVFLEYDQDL
Briefly: ITC; 25 °C, 300 mM NaCl, 0.5 mM TCEP, 25 mM HEPES pH 7.5; 445 µM CI-MPR_(2347–2375) peptide titrated into a mix of 100 µM SNX1^BAR and 20 µM SNX5^PX; one-site model. (In ITC the heat of successive injections is recorded.)

The target of assay [5] is T5, SNX5^PX (PX domain of SNX5). Briefly: ITC; 25 °C, 300 mM NaCl, 0.5 mM TCEP, 25 mM HEPES pH 7.5; CI-MPR in the syringe (SNX1^PX in the syringe for its test with the peptide); one-site model.
The target in assay [6] is T6, SNX1^BAR–SNX5^FL heterodimer (human, UniProt Q13596 301-522; Q9Y5X3 1-404).
T6 construct: BAR domain of SNX1, human; sorting nexin 5 (SNX5), human, full length; also called SNX1^BAR–SNX5 partial heterodimer; source: E. coli BL21 (DE3), purified as for SNX1^FL–SNX5^FL; not shown: His6-SUMO3, N-terminal, cleaved; copies: 1 + 1
The assay is described as above.

For assay [7], the target named is T3, ESCPE-1 (SNX1^FL–SNX5^FL heterodimer). Described as above.
Assay [8] addresses B4. Described as above.

The term Kd denotes the constant that tells how readily two partners part at equilibrium. A high value points to a looser complex.

T3 sequence (Q13596 whole entry, one chain of several): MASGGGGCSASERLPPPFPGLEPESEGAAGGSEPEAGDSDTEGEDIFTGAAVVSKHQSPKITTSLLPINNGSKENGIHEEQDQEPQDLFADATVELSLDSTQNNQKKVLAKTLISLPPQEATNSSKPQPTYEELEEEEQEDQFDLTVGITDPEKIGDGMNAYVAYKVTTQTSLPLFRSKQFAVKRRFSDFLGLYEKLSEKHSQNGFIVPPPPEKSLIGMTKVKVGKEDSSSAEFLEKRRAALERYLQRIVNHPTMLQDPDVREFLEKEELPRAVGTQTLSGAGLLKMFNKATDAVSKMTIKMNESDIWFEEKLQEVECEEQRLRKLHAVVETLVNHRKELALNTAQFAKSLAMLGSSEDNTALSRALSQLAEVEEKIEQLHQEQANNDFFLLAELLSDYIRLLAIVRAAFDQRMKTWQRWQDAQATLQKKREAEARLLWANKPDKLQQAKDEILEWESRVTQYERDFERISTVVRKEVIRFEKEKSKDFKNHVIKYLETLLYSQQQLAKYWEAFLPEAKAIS
T1 sequence (Q13596 whole entry): as the sequence (Q13596 whole entry, one chain of several) above
T2 sequence (Q13596 whole entry F347A/W511A): as the sequence (Q13596 whole entry, one chain of several) above, with F347A, W511A counted along it
T6 sequence (Q13596 301-522, chain 1 of 2, one chain of several): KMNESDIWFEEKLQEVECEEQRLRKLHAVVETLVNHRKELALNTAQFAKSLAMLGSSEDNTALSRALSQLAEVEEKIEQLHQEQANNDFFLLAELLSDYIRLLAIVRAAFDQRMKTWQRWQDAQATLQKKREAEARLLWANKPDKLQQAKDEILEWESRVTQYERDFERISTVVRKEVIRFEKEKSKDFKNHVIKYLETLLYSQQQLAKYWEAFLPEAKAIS
T4 sequence (Q13596 whole entry): as the sequence (Q13596 whole entry, one chain of several) above

B1: SNX5 (4 mut)^‡ (Y219A, M233A, V240A, R368A) (natural protein, human, UniProt Q9Y5X3 1-404, looked up)
chain: MAAVPELLQQQEEDRSKLRSVSVDLNVDPSLQIDIPDALSERDKVKFTVHTKTTLPTFQSPEFSVTRQHEDFVWLHDTLIETTDYAGLIIPPAPTKPDFDGPREKMQKLGEGEGSMTKEEFAKMKQELEAEYLAVFKKTVSSHEVFLQRLSSHPVLSKDRNFHVFLEYDQDLSVRRKNTKEMFGGFFKSVVKSADEVLFTGVKEVDDFFEQEKNFLINAYNRIKDSCVKADKATRSHKNAADDYIHTAACLHSLALEEPTVIKKYLLKVAELFEKLRKVEGRVSSDEDLKLTELLRYYMLNIEAAKDLLYRRTKALIDYENSNKALDKARLKSKDVKLAEAHQQECCQKFEQLSESAKEELINFKRKAVAAFRKNLIEMSELEIKHARNNVSLLQSCIDLFKNN
notes: sorting nexin 5 (SNX5), human, four point mutations; source: E. coli BL21 (DE3), purified (glutathione Sepharose, TEV cleavage, SEC); not shown: GST, N-terminal, cleaved
Consider B1, for which the binding result in the assay with His-SUMO-SNX1 and with His-SUMO-SNX1 (2× mut)^† was “binds” in each case.

B2: SNX5 (6 mut)^§ (Y219A, M233A, V240A, R368A, I398A, F401A) (natural protein, human, UniProt Q9Y5X3 1-404, looked up)
chain: MAAVPELLQQQEEDRSKLRSVSVDLNVDPSLQIDIPDALSERDKVKFTVHTKTTLPTFQSPEFSVTRQHEDFVWLHDTLIETTDYAGLIIPPAPTKPDFDGPREKMQKLGEGEGSMTKEEFAKMKQELEAEYLAVFKKTVSSHEVFLQRLSSHPVLSKDRNFHVFLEYDQDLSVRRKNTKEMFGGFFKSVVKSADEVLFTGVKEVDDFFEQEKNFLINAYNRIKDSCVKADKATRSHKNAADDYIHTAACLHSLALEEPTVIKKYLLKVAELFEKLRKVEGRVSSDEDLKLTELLRYYMLNIEAAKDLLYRRTKALIDYENSNKALDKARLKSKDVKLAEAHQQECCQKFEQLSESAKEELINFKRKAVAAFRKNLIEMSELEIKHARNNVSLLQSCADLAKNN
notes: sorting nexin 5 (SNX5), human, six point mutations; source: E. coli BL21 (DE3), purified (glutathione Sepharose, TEV cleavage, SEC); not shown: GST, N-terminal, cleaved
Regarding B2, the binding result with His-SUMO-SNX1 is “binds”.

B3: CI-MPR_(2330–2491) cytosolic tail with an N-terminal cysteine, cross-linked to liposomes (domain or fragment, UniProt P11717 2330-2491, looked up)
chain: ERRETVISKLTTCCRRSSNVSYKYSKVNKEEETDENETEWLMEEIQLPPPRQGKEGQENGHITTKSVKALSSLHGDDQDSEDEVLTIPEVKVHSGRGAGAESSHPVRNAQSNALQEREDDRVGLVRGEKARKGKSSSAQQKTVSSTKLVSFHDDSDEDLLHI
modifications: N-terminal cysteine cross-linked to maleimide-functionalized lipid (DSPE-Mal) on liposomes
notes: cation-independent mannose-6-phosphate receptor (CI-MPR), cytosolic tail, residues 2330-2491; also called CI-MPR tail; source: E. coli Rosetta (DE3), purified, conjugated to DSPE-Mal liposomes; not shown: Cys (added for chemical cross-linking), N-terminal, kept
Take B3: the binding result in assay [1] and in assay [2] was “binds” each time.

Regarding B4, the binding result (in assay [3]; with His-SUMO-SNX1; with His-SUMO-SNX1 (2× mut)^†) was “binds” throughout.

B5: CI-MPR_(2347–2375) peptide (bipartite sorting motif of the cation-independent mannose-6-phosphate receptor tail) (peptide, UniProt P11717 2347-2375, looked up)
peptide: SNVSYKYSKVNKEEETDENETEWLMEEIQ
notes: Called a peptide in the ITC methods; also called shorter CI-MPR tail segment
B5: the “KD into a mixture of SNX5^PX and SNX1^BAR” value in assay [4] was about 3200 nM. In addition, the results for the Kd in assay [5], in [6] and in [7] were about 8000 nM, about 1900 nM and 1500 nM, respectively.

B6: SUMO-CI-MPR_(2330–2491) (entire cytosolic tail domain of CI-MPR) (domain or fragment, UniProt P11717 2330-2491, looked up)
chain: ERRETVISKLTTCCRRSSNVSYKYSKVNKEEETDENETEWLMEEIQLPPPRQGKEGQENGHITTKSVKALSSLHGDDQDSEDEVLTIPEVKVHSGRGAGAESSHPVRNAQSNALQEREDDRVGLVRGEKARKGKSSSAQQKTVSSTKLVSFHDDSDEDLLHI
notes: cation-independent mannose-6-phosphate receptor (CI-MPR), cytosolic tail, residues 2330-2491; also called CI-MPR tail domain; cytoplasmic domain of the CI-MPR; source: E. coli Rosetta (DE3), purified; not shown: His6-SUMO3, N-terminal, kept
Take B6: the Kd is about 8800 nM in [8] and 2600 nM in [7].
